Laboratory results reported in publication PMC9408933, “Discovery of the Key Mutation Site Influencing the Thermostability of Thermomyces lanuginosus Lipase by Rosetta Design Programs” (International Journal of Molecular Sciences, 2022).

The substances below were run on T1, CCCCCCCCCCCCCCCC(=O)Oc1ccc([N+](=O)[O-])cc1 (assay: p-nitrophenol release, Michaelis-Menten fit). Conditions: 37 °C, pH 9.0, 100 mM Tris-HCl, pNPP 0.08-10.00 mM, apparent Km.
T1 construct: N-terminal His-tag, secreted from Pichia pastoris GS115 (pPIC9K), Ni-NTA purified
Format: biochemical, Thermomyces lanuginosus
From the text: p-nitrophenol release, Michaelis-Menten fit on TLL (Thermomyces lanuginosus lipase)

Substance	Km	Vmax	kcat	kcat/Km
TLL (Thermomyces lanuginosus lipase) (Thermomyces lanuginosus; R231T)	190 ± 30 µM	344 µmol/min/mg	1090 ± 27.6 s⁻¹	5.75e+06 ± 146000 M⁻¹ s⁻¹
TLL (Thermomyces lanuginosus lipase) (Thermomyces lanuginosus; R231K)	170 ± 20 µM	345 µmol/min/mg	1100 ± 14 s⁻¹	6.5e+06 ± 82500 M⁻¹ s⁻¹
TLL (Thermomyces lanuginosus lipase) (Thermomyces lanuginosus; R231I)	180 ± 20 µM	303 µmol/min/mg	767 ± 22.8 s⁻¹	4.26e+06 ± 127000 M⁻¹ s⁻¹
TLL (Thermomyces lanuginosus lipase) (Thermomyces lanuginosus; R231E)	140 ± 20 µM	301 µmol/min/mg	1230 ± 27.6 s⁻¹	8.79e+06 ± 197000 M⁻¹ s⁻¹
TLL (Thermomyces lanuginosus lipase) (Thermomyces lanuginosus; R231A)	230 ± 30 µM	384 µmol/min/mg	1220 ± 43 s⁻¹	5.31e+06 ± 187000 M⁻¹ s⁻¹
TLL (Thermomyces lanuginosus lipase) (Thermomyces lanuginosus; R231Q)	230 ± 30 µM	354 µmol/min/mg	788 ± 7.98 s⁻¹	3.42e+06 ± 34700 M⁻¹ s⁻¹
TLL (Thermomyces lanuginosus lipase) (Thermomyces lanuginosus; R231P)	160 ± 20 µM	339 µmol/min/mg	1387 ± 12.8 s⁻¹	8.669e+06 ± 80300 M⁻¹ s⁻¹
TLL (Thermomyces lanuginosus lipase) (Thermomyces lanuginosus; R231H)	180 ± 20 µM	330 µmol/min/mg	790 ± 22.7 s⁻¹	4.39e+06 ± 126000 M⁻¹ s⁻¹
TLL (Thermomyces lanuginosus lipase) (Thermomyces lanuginosus; R231V)	140 ± 20 µM	260 µmol/min/mg	713 ± 8.11 s⁻¹	5.09e+06 ± 57900 M⁻¹ s⁻¹
TLL (Thermomyces lanuginosus lipase) (Thermomyces lanuginosus; R231M)	190 ± 30 µM	319 µmol/min/mg	765 ± 17.6 s⁻¹	4.02e+06 ± 92400 M⁻¹ s⁻¹
